Here are results for 41 sequences from the Immune Epitope Database (IEDB).

Assay [1] concerns the target HLA-A*02:01. The assay is described as follows: IEDB peptide-MHC binding, purified MHC/competitive/fluorescence; ≥ and ≤ were set here for values at or beyond the usual limits of such assays.
Assay [2] addresses HLA-A*02:01. Put plainly: IEDB peptide-MHC binding, purified MHC/direct/fluorescence; filed as Kd, often an IC50 or EC50 that approximates it; ≥ and ≤ were set here for values at or beyond the usual limits of such assays.
Another assay concerns the target HLA-A*69:01. The description is as above.
The next assay addresses HLA-B*58:01. The assay is described as above. The note with it: source organism: Human immunodeficiency virus 1.
Another assay has as its target HLA-A*02:06. Put plainly: IEDB peptide-MHC binding, purified MHC/competitive/radioactivity; filed as Kd, often an IC50 or EC50 that approximates it; ≥ and ≤ were set here for values at or beyond the usual limits of such assays.
In the next assay the target is HLA-A*02:02. The assay is described as above.
Another assay has as its target HLA-A*02:03. Described as above.
A further assay deals with HLA-A*03:01. Put plainly: IEDB peptide-MHC binding, purified MHC/direct/fluorescence; filed as Kd, often an IC50 or EC50 that approximates it; ≥ and ≤ were set here for values at or beyond the usual limits of such assays. The note with it: source organism: Vibrio parahaemolyticus.
[3] abbreviates: source organism: Giardia lamblia ATCC 50803.
Setting [4] is: source organism: Zaire ebolavirus.
The mark [5] stands for this setting: source organism: Shigella boydii.
[6] abbreviates: source organism: Mycobacterium tuberculosis.
The mark [7] stands for this setting: source organism: Sudan ebolavirus.
Setting [8] is: source organism: Mycobacterium tuberculosis variant bovis.
Setting [9] is: source organism: Yersinia pestis.
The mark [10] stands for this setting: source organism: Vaccinia virus WR.
Where [11] appears, read: source organism: Mammarenavirus guanaritoense.
The mark [12] stands for this setting: source organism: SARS coronavirus Tor2.

pIC50, pKd: −log10 of the molar value.

A word on the pIC50: it is the negative decadic logarithm of the IC50, by convention in mol/L. A lower pIC50 goes with a large IC50. For TGVGKTSQV, the pIC50 with HLA-A*02:01 [1] (source organism: Variola virus) is 4.44.
In general, pKd refers to the Kd on a negative log10 scale, so that one unit is a factor of ten. On to YFLESNFFI, for which the negative-log Kd (pKd) with HLA-A*02:01 [2] (setting [3]) is 9.22; in the assay with HLA-A*69:01 (setting [3]) it was 8.66.
As for AMVQVHSQG, the pIC50 with HLA-A*02:01 [1] (setting [4]) is no more than 3.99.
Turning to KLPRWIFFA, the pKd with HLA-A*02:01 [2] (setting [5]) is 8.82; in the assay with HLA-A*69:01 (setting [5]), 6.02.
In turn, GLPPGTPAV gave a pKd with HLA-A*02:01 [2] (setting [6]) of 7.56.
In the case of TLFKIDNNT, the pIC50 with HLA-A*02:01 [1] (setting [7]) is 4.73.
In the assay with HLA-A*02:01 [1] (setting [4]), DTGEESASS gave a pIC50 of no more than 3.37.
FLIDLAFLI showed a pKd in the assay with HLA-A*02:01 [2] (source organism: Camelpox virus M-96) of 8.52.
Turning to ELRGLLKDV, the pKd is no more than 4.70 with HLA-A*02:01 [2] (setting [8]) and 4.89 in the assay with HLA-A*69:01 (setting [8]).
Regarding FLEQGGFKA, the values for the pKd with HLA-A*02:01 [2] (setting [9]) and with HLA-A*69:01 (setting [9]) were 7.19 and 5.70, respectively.
Turning to NANPDCKTI, the pKd was 5.03 with HLA-B*58:01 and 5.12 with HLA-A*69:01 (source organism: Human immunodeficiency virus 1).
In turn, LSNGMLRFA showed a pIC50 with HLA-A*02:01 [1] (source organism: Vaccinia virus) of 5.25.
As to LLTDTIESA, the pKd was 8.23 with HLA-A*02:06 (setting [10]), 7.78 in the assay with HLA-A*02:02 (setting [10]) and 7.98 in the assay with HLA-A*02:03 (setting [10]).
Sequence NLHYWTAQE had a pIC50 with HLA-A*02:01 [1] (setting [7]) of no more than 3.72.
As for SLVSKHWELT, the pKd with HLA-A*02:06 (setting [10]) was 5.57; in the assay with HLA-A*02:02 (setting [10]), 6.39; in the assay with HLA-A*02:03 (setting [10]), 7.46.
The matching figures for KLTKDRKML: no more than 4.11, no more than 4.61 and no more than 4.44.
For the sequence NIKISLNEI, the pKd was 5.82 with HLA-A*02:06 (setting [10]), 5.78 in the assay with HLA-A*02:02 (setting [10]) and 7.51 with HLA-A*02:03 (setting [10]).
Consider VLPPEINSL, for which the pKd with HLA-A*02:01 [2] (setting [6]) is 7.15.
With FTHTTAFFNT, the negative-log Kd (pKd) with HLA-A*02:06 (setting [10]) is 7.29; in the assay with HLA-A*02:02 (setting [10]), 4.76; in the assay with HLA-A*02:03 (setting [10]), 4.99.
In turn, KHGEYAPFA had a pIC50 with HLA-A*02:01 [1] (setting [4]) of 4.55.
For the sequence DQTHIKTIAV, the negative-log Kd (pKd) was 6.00 in the assay with HLA-A*02:06 (setting [10]), 5.66 in the assay with HLA-A*02:02 (setting [10]) and 6.41 with HLA-A*02:03 (setting [10]).
Turning to RLDGTTLEV, the pIC50 in the assay with HLA-A*02:01 [1] (source organism: Mycobacterium leprae) was 7.46.
Consider KNAGYLVGR, for which the negative logarithm of the Kd (pKd) with HLA-A*02:06 (setting [11]) was no more than 4.11; with HLA-A*02:02 (setting [11]) it was no more than 4.34; in the assay with HLA-A*02:03 (setting [11]) it was no more than 4.11.
Sequence TSSDPGTNT had a pIC50 with HLA-A*02:01 [1] (setting [4]) of no more than 3.60.
In turn, FSTLDKITD showed a negative logarithm of the IC50 (pIC50) with HLA-A*02:01 [1] (source organism: Variola virus) of 4.27.
With IAIFNNRNLA, the pKd in the assay with HLA-A*02:06 (setting [10]) is 6.05; with HLA-A*02:02 (setting [10]), 5.47; with HLA-A*02:03 (setting [10]), 5.83.
With WVMDTLNGIM, the figures for the pKd with HLA-A*02:06 (setting [10]), in the assay with HLA-A*02:02 (setting [10]) and in the assay with HLA-A*02:03 (setting [10]) were 6.89, 5.88 and 6.71, respectively.
Take RLKVFLPNP: the pIC50 in the assay with HLA-A*02:01 [1] (source organism: Variola virus) is 5.03.
FVVNGHTCM: the values for the negative-log Kd (pKd) with HLA-A*02:06 (setting [10]), with HLA-A*02:02 (setting [10]) and with HLA-A*02:03 (setting [10]) were 5.74, 5.18 and 5.23, respectively.
For YASLTTIGTI, the pKd is 7.08 in the assay with HLA-A*02:06 (setting [10]), 5.20 with HLA-A*02:02 (setting [10]) and 6.40 in the assay with HLA-A*02:03 (setting [10]).
Sequence QLSDHPMVK showed a pKd with HLA-A*03:01 of 6.84.
Consider LVSKHWELT, for which the pKd with HLA-A*02:06 (setting [10]) is no more than 4.11; with HLA-A*02:02 (setting [10]), 4.91; with HLA-A*02:03 (setting [10]) it was 4.83.
Regarding ETFPNVHEHI, the pKd is no more than 4.16 with HLA-A*02:06 (setting [10]), 5.10 with HLA-A*02:02 (setting [10]) and 5.18 in the assay with HLA-A*02:03 (setting [10]).
LVFNSISARA: the pKd with HLA-A*02:06 (setting [10]) was 6.15; with HLA-A*02:02 (setting [10]), 5.90; with HLA-A*02:03 (setting [10]), 6.60.
As to TLFYCDERDA, the figures for the pKd with HLA-A*02:06 (setting [10]), in the assay with HLA-A*02:02 (setting [10]) and with HLA-A*02:03 (setting [10]) were 4.71, 6.57 and 5.67, respectively.
As for AMLHWSLIL, in the assay with HLA-A*69:01 (source organism: Yellow fever virus 17D), the pKd was no more than 4.70.
Consider EAKTHFSTT, for which the results for the pKd with HLA-A*02:06 (setting [10]), with HLA-A*02:02 (setting [10]) and in the assay with HLA-A*02:03 (setting [10]) were no more than 4.26, no more than 4.44 and no more than 4.60, respectively.
FTDCRTIDAI: the pKd is 6.12 with HLA-A*02:06 (setting [10]), 5.03 in the assay with HLA-A*02:02 (setting [10]) and 4.89 with HLA-A*02:03 (setting [10]).
For the sequence TTTFITVLT, the pKd with HLA-A*02:06 (setting [10]) is 5.96; with HLA-A*02:02 (setting [10]), 5.61; in the assay with HLA-A*02:03 (setting [10]) it was 5.07.
The matching figures for GLKIEEIEKV: 6.70, 7.83 and 8.18.
As to ALVSGTATA, the pKd is 6.57 with HLA-A*02:06 (setting [12]), 8.33 in the assay with HLA-A*02:02 (setting [12]) and 8.09 with HLA-A*02:03 (setting [12]).
